# ± gives the uncertainty stated by the source.
# Test: protein stability index of a GFP-peptide fusion (yeast GPS) (PSI 1-4); higher = more stable; sorted into four equal gates, so the index is relative within each strain
# Method in brief: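 Plasmids in a pooled yeast library fused tiled 17-residue yeast protein peptides downstream of GFP and also expressed Cherry. Mid-log cultures grown without leucine were sorted into four equal gates by GFP/Cherry fluorescence ratio. Each gate's plasmids were PCR-amplified and Illumina-sequenced, and reads were matched to strains by barcodes. The protein stability index is derived by multiplying each gate's read frequency by its gate number and summing the results.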
Sequence,protein stability index (doa10∆),protein stability index (pdr5∆),protein stability index (san1∆),protein stability index (ubr1∆)
ARIHAQNYLKTYNEDIP [PRE9],2.28 ± 0.051,1.99 ± 0.079,2.75 ± 0.085,2.05 ± 0.061
YYLGQYYGCLENDHERG [CSN12],2.68 ± 0.098,2.85 ± 0.093,2.84 ± 0.06,3.06 ± 0.052
RKIVFRCSECIKILGSE [RPN4],1.22 ± 0.14,1.88 ± 0.25,–,–
IQLPASLAATYSMISLQ [ARP9],1.73 ± 0.088,2.01 ± 0.074,2.29 ± 0.1,2.19 ± 0.053
AGKVKSQTPKVEKTEKP [RPS30A],3.18 ± 0.078,2.9 ± 0.093,2.95 ± 0.072,2.93 ± 0.055
SSDAFEKLKVNMEKEKD [YIL149C/MLP2],3.05 ± 0.071,3.19 ± 0.094,3.33 ± 0.057,3.23 ± 0.062
EKPAVKSYASLLAQLNG [RPT3],2.8 ± 0.082,2.6 ± 0.097,2.81 ± 0.082,2.76 ± 0.057
YLKAFDKNKLLLLAAQI [SSN2],1.32 ± 0.061,1.37 ± 0.052,1.36 ± 0.085,1.42 ± 0.045
LHVPNLQPPKTSSRGRD [SMC4],2.44 ± 0.044,2.52 ± 0.043,2.29 ± 0.054,2.18 ± 0.039
KLLASTEENKANTNSVT [YIL149C/MLP2],3.32 ± 0.083,3.24 ± 0.066,3.25 ± 0.056,3.32 ± 0.036
LYLQDSNDKFVHVQLLI [SRB8],1.96 ± 0.055,2.06 ± 0.057,1.93 ± 0.066,2.17 ± 0.042
TEEPDLAIADVETKLET [DSN1],3.2 ± 0.12,3.35 ± 0.11,2.48 ± 0.097,3.5 ± 0.14
PGWDFETEEIDPELLRS [RPL5],3.34 ± 0.13,3.19 ± 0.081,3.11 ± 0.057,2.77 ± 0.17
ATMENIQKGKFTLLDFK [SRP54],2.98 ± 0.068,3.04 ± 0.081,2.42 ± 0.089,2.96 ± 0.046
LEKKFPDRHVIFLAERR [RPS7B],2.77 ± 0.066,2.87 ± 0.058,2.91 ± 0.046,3.1 ± 0.042
NLDIAKDLIRTDEALFE [MED4],3.44 ± 0.22,3.29 ± 0.19,2.46 ± 0.28,3.31 ± 0.24
VKVNHNEKRYATASAIA [RPL4A],2.29 ± 0.1,2.62 ± 0.11,2.1 ± 0.12,2.18 ± 0.067
EAGEVKDDGAFVKFLSK [RPL10],3.28 ± 0.087,3.22 ± 0.078,3.35 ± 0.07,3.61 ± 0.065
SFQLSKIRRAARDLLTR [RPS9A],2.06 ± 0.044,2.24 ± 0.044,2.21 ± 0.045,1.98 ± 0.032
IGVRCYEAYPNTSLPPS [FAS1],2.29 ± 0.036,2.33 ± 0.032,2.59 ± 0.034,2.54 ± 0.028

Sequence,protein stability index (doa10∆),protein stability index (pdr5∆),protein stability index (san1∆),protein stability index (ubr1∆)
NIGQQQVKKPRKQRVKK [SWI1],3.47 ± 0.12,3.35 ± 0.13,3.42 ± 0.084,3.48 ± 0.11
EEALNFDISMADLSSSE [SSN2],2.85 ± 0.06,2.95 ± 0.053,3.05 ± 0.07,2.6 ± 0.049
KLYVDAVHSIIALSRRF [YDL116W/NUP84],2.01 ± 0.077,1.81 ± 0.065,1.82 ± 0.12,1.93 ± 0.064
AKMNAKTDFAKIINKPN [RPC82],1.8 ± 0.069,1.79 ± 0.092,1.58 ± 0.17,1.62 ± 0.069
EDKRKVRSAEYYAKKRA [RPL16B],3.31 ± 0.1,3.38 ± 0.089,3.36 ± 0.071,3.46 ± 0.055
TRFPPAVFYTPKELGGL [PRP8],3.19 ± 0.076,3.08 ± 0.07,3.25 ± 0.068,3.04 ± 0.063
LFLEPSWSSSAAVIMRC [PCI8],1.19 ± 0.087,2.07 ± 0.093,1.58 ± 0.16,2.39 ± 0.095
FVVKLDTVDRLIIKYQK [GAL11],2.25 ± 0.042,2.3 ± 0.048,2.54 ± 0.054,2 ± 0.039
ETEQEYSPSNEISISFD [YDL116W/NUP84],2.65 ± 0.058,2.89 ± 0.067,2.52 ± 0.059,2.98 ± 0.048
IGTGEHIHDLEKFSPKS [SRP54],2.33 ± 0.067,2.43 ± 0.053,2.9 ± 0.053,2.03 ± 0.042
DPRIAPLRGALATYGLT [FAS2],2.37 ± 0.1,2.51 ± 0.16,2.38 ± 0.13,2.04 ± 0.056
KESQLPRIQRADPVALY [RPB5],2.32 ± 0.069,2.63 ± 0.058,2.5 ± 0.089,2.59 ± 0.048
PRLLGPQLSKAGKFPTP [RPL1A],2.86 ± 0.066,2.8 ± 0.057,2.74 ± 0.052,2.64 ± 0.035
SKVASSLVIIILVKRYS [ECM29],1.85 ± 0.054,1.44 ± 0.042,1.71 ± 0.094,2.12 ± 0.051
KVIDLDTKLKAHELQSE [YIL149C/MLP2],2.55 ± 0.055,2.73 ± 0.053,2.58 ± 0.059,2.69 ± 0.042
TVGSSNGGLIHVVTREK [RPO21],2.98 ± 0.15,3.19 ± 0.12,2.87 ± 0.13,3.09 ± 0.07
LDLIPHSSSVFKGTDFV [SRB4],2.42 ± 0.062,2.74 ± 0.057,2.89 ± 0.068,2.4 ± 0.041
RVRHEDVETVKREIQEA [RPC53],–,3 ± 0.17,–,–
GRGRGRGRPPKARNGLD [SNF2],3.13 ± 0.084,3.17 ± 0.075,3.29 ± 0.047,3.33 ± 0.057
EAPFLTSGTSSEQFNVW [GAL11],2.56 ± 0.091,3.27 ± 0.072,3.02 ± 0.062,3.21 ± 0.13

# From the supplement of paper PMC9732359
